Legend:
[1] = target: human CD40 on cells (native CD40 on Ramos cells, human B cells, human monocyte-derived dendritic cells; cell surface CD40) (human) (UniProt P25942); test: FACS on live Ramos cells, goat anti-human IgG (H+L) PE
[2] = target: human CD40 on cells (native CD40 on Ramos cells, human B cells, human monocyte-derived dendritic cells; cell surface CD40) (human) (UniProt P25942); test: cell-based or functional assay

human CD40 on cells (native CD40 on Ramos cells, human B cells, human monocyte-derived dendritic cells; cell surface CD40) (human), sequence (P25942 21-193): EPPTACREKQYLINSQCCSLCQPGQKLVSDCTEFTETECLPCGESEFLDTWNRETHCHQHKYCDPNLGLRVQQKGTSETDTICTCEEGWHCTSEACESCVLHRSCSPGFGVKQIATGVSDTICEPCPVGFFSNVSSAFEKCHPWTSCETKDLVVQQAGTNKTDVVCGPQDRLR

EC50 [1]: 0.0218 µg/mL | EC50 (ng/ml), CD40 agonist activity: up-regulation of CD86 on human B cells [2]: 1260 ng/mL
Substance: SGN-40 (antibody)

— US20230406948A1
